Assay results from the supplement of paper PMC9170038.

System: MS2 coat protein
Assay: apparent KD of MS2 coat protein; designed switch direction (-1 OFF switch, 1 ON switch): -1; higher = weaker reporter binding
How it was run: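 The buffer was Tris-HCl pH 7.5 with KCl, MgCl2, BSA, DTT, tRNA and Tween-20. In it, SNAP-549-labelled MS2 coat protein was titrated in doubling steps from 0.7 or 1.5 nM to 3 µM over chip-bound RNA switches transcribed by stalled E. coli RNA polymerase on Illumina chips. Apparent KD is the per-design median over clusters of curve fits to normalised fluorescence.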

[1] = Eterna round: R95, input ligand: FMN 200 uM
[2] = Eterna round: R95, input ligand: microRNA oligo, concentration not stated
[3] = Eterna round: R95, input ligand: none
[4] = input ligand: microRNA oligo, concentration not stated

Sequence | apparent KD of MS2 coat protein [1] | apparent KD of MS2 coat protein [2] | apparent KD of MS2 coat protein [3] | apparent KD of MS2 coat protein (input ligand: FMN 200 uM) | apparent KD of MS2 coat protein (input ligand: none) | apparent KD of MS2 coat protein [4]
AAUAAUAGGGAGGAUAUCGUAUCGGAAACGAUACGAGAAGGUCUAACAUGAGGAUCACCCAUGUUCCUCAAUAA [Fiskers Ex 6 - 5] (puzzle: Exclusion 6) | 68.3 nM | 40.6 nM | 45.7 nM | – | – | –
CCUCCACAUGAGGAUCACCCAUGUGAGGAUAUCCUGCGAGGAUCAAAAGAUCCUCGUGGGAGAAGGCACAUGAA [Omei Ex1 A9] (Eterna round: R97, puzzle: Exclusion 1) | – | – | – | 241 nM | 39.3 nM | –
UUAUUACAAGCAAGAUCCCACAUGAGGAUCACCCAUGUGCUCGUCUUAUAAGGUACAGUGACGAAAGUCACAGUACC [Sensor 3, v1 - 0] (puzzle: Sensor v3, turn-off variant 1) | 29.4 nM | 795 nM | 22.3 nM | – | – | –
CUUGUGUGAGGAUAUGACAAUGGUAUCUUCGGAUACCAUUGUCAGAAGGUACAUGAGGAUCACCCAUGUAGAUC [Exclusion 4 - Mod Brourd Ex 4-3: 20] (puzzle: Exclusion 4) | – | 72 nM | – | – | – | –
AAUAAACAAGCGAGAUCCUACAUGAGGAUCACCCAUGUGCUCGUCUUAUAAAGUACUAUCACGAAAGUGAUAGUACA [Mat - Sensor v3 - turn-off var 1 - Eli Mod - D65] (puzzle: Sensor v3, turn-off variant 1) | 16.1 nM | 41.5 nM | 15.3 nM | – | – | –
CAUCCAGCUUCCCUUCAAAACAUGAGGAUCACCCAUGUUUUUGUUUUUACAAGCUUUUUGCUUUUUGCUCGUCUUGU [A Humble Attempt... Again] (puzzle: Sensor v3, turn-off variant 1) | 20.5 nM | 16 nM | 21.5 nM | – | – | –
GCAGGUUAAGUCAGGAUAUACCUCUGGAAACAGAGGUAGAAGGGACAUGAGGAUCACCCAUGUUUCUCAUCUGC [Mod of Eli 3 - Jieux - Brourd's mod of Exclusion 4] (Eterna round: R97, puzzle: Brourd's mod of Exclusion 4) | – | – | – | 85.6 nM | 19.2 nM | –
AAUGAGCGAGGAUAUGCAACUGUAUGACCUACGUGUGCCAGACAUGAGGAUCACCCAUGUAGAAGGUGCUUUCC [Israte] (Eterna round: R96, puzzle: Exclusion 2) | – | – | – | 59.9 nM | 57 nM | 45.3 nM
ACAGUACUGCAAGGAUAUCGUUCUAGUUUAUUACGAGAAGGUGCUUUAGUUAUUUCUUUGGGUUGACAUGAGGAUCACCCAUGU [JR_ExcNG1_Sub056] (Eterna round: R96, puzzle: Exclusion NG 1) | – | – | – | 156 nM | 144 nM | 143 nM
GGUGGACAUGAGGAUCACCCAUGUGAGGAUAUCGGCCGGUUCGCGGUGGCUGGCGUCUCGAGAAGGCGCAUAGU [Exclusion 1 V71] (puzzle: Exclusion 1) | – | 28.7 nM | – | – | – | –
GUCGUGCAGCUUUGCUGUACGAGUACAUGAGGAUCACCCAUGUAGGAUAUGGUACGCUUUGCGUGCCAGAAGGACGUGCGUUGG [salish99_ExNG3_r04_004] (Eterna round: R96, puzzle: Exclusion NG 3) | – | – | – | – | – | 38.3 nM
AAUGUGUGAGGAUAUUAAUUGCAAGCGAAUAGGCUUGUGAUUGAGAAGGCACAUGAGGAUCACCCAUGUUCCAA [JR_Ex4_Sub083] (Eterna round: R97, puzzle: Exclusion 4) | – | – | – | 557 nM | 38.6 nM | –
GCCUUAUCUGUCAGGAUAUACAAUAAAAUAACUUUGUAGAAGGGACAUGAGGAUCACCCAUGUACAUUACAUUG [alecazam24b] (Eterna round: R97, puzzle: Brourd's mod of Exclusion 4) | – | – | – | 63.1 nM | 24.6 nM | –
CCGGAAAUGCAGGAUAUCGUAUCGGAAACGAUACGAGAAGGGUAUACAUGAGGAUCACCCAUGUGUCCUACCGG [Fiskers Ex 6 - 21] (puzzle: Exclusion 6) | – | 20.6 nM | – | – | – | –
CACCUACAUGAGGAUCACCCAUGUGAGGAUAUGGAACAACAAGAACAUUUACUUGUUCCCAGAAGGCACAUUGG [jun14#1] (Eterna round: R97, puzzle: Exclusion 1) | – | – | – | 64.3 nM | 130 nM | –
UAAGUUUACCGAGGAUAUGGUCCAUAAUUUUUACCAGAAGGCGGACUCAACAUGAGGAUCACCCAUGUAUAAAGGGUAUUUGGU [JR_ExcNG1_Sub046] (Eterna round: R96, puzzle: Exclusion NG 1) | – | – | – | 51.2 nM | 35.8 nM | 27.4 nM
CGGUGUAACGCAGGAUAUCAUCGCAACUGACGUUGAGAAGGGCGACAUGAGGAUCACCCAUGUGAUUUCUCAAUAUUAUACAUC [Prohibition 84 - Jieux - Exclusion NG 1] (Eterna round: R96, puzzle: Exclusion NG 1) | – | – | – | 212 nM | 59.8 nM | 36.5 nM

Sequence | apparent KD of MS2 coat protein [1] | apparent KD of MS2 coat protein [2] | apparent KD of MS2 coat protein [3] | apparent KD of MS2 coat protein (input ligand: FMN 200 uM) | apparent KD of MS2 coat protein (input ligand: none) | apparent KD of MS2 coat protein [4]
CUAUUACGAGGAUAUGAUUUAAAUAACAUGAGGAUCACCCAUGUUUUUACGUUAUUAUGUUUAGAAGGCGUAUUGU [JR_E5_Sub026] (puzzle: Exclusion 5) | – | 43.4 nM | – | – | – | –
ACAUGAGGAUCACCCAUGUGGACGUAAUGGCUCAUGUAGAGUGAGGAUAUGUGAGACGAACGAGAACAGAAGGCACAAGACAGG [Deportation 7 - Jieux - Exclusion NG 3] (Eterna round: R96, puzzle: Exclusion NG 3) | – | – | – | 26.3 nM | 22.1 nM | 14.5 nM
ACGGGUAAGUAAGGAUAUCCAACAGGCUGAAUUCAACCUGAACAUGAGGAUCACCCAUGUGGGUGGGAGAAGGUACUCUCCCGC [Diladiaen] (Eterna round: R96, puzzle: Exclusion NG 2) | – | – | – | 86.5 nM | 93.7 nM | 65.5 nM
ACAUGUCAUUGAGGAUAUCGCACACAUGAGGAUCACCCAUGUAAACGGAUGCUCAUUAGUGGGUUCGAGAAGGCGAUGUACAUU [Ex NG2 #99] (Eterna round: R96, puzzle: Exclusion NG 2) | – | – | – | 64.7 nM | 68.5 nM | 72.9 nM
CCCUCACAUGAGGAUCACCCAUGUCAGGAUAUUCAGGUCACGCAAAAGCGGUUCCAAAGGAGAAGGGACAUCAA [Cequusso] (puzzle: Exclusion 1) | 43.8 nM | 24.2 nM | 30.9 nM | – | – | –
UUUAAUUUUUUUUUUUUACAAGCUUUUUGCUCGUCUUAUACAUGAGGAUCACCCAUGUGGGUGAGGGAUAAAUUAUC [JMF 42] (puzzle: Sensor v3, turn-off variant 2) | 16.3 nM | 27.2 nM | 574 nM | – | – | –
UCUAGUUGGUAAGGAUAUCCUACAUUGUUCUGGCCCGGGCAUGCUACAUGAGGAUCACCCAUGUGGGAGAAGGUGCGUCAUUGC [Design 21] (Eterna round: R96, puzzle: Exclusion NG 2) | – | – | – | 44.6 nM | 61.9 nM | 32.2 nM
AAACGGGUGUCCUCGUUUUCAACAUGAGGAUCACCCAUGUUCGAGGAUAUCCAAUAAGCUCUUCAGGAGAAGGCGAACAUAAAA [Anenence] (Eterna round: R96, puzzle: Exclusion NG 3) | – | – | – | 20.1 nM | 15.7 nM | 13.3 nM
UGAACAUGAGGAUCACCCAUGUGGUUAGGUGAAAUCCUGCUGGAGGAUAUAAGUCCUGGUGCCGCUUAGAAGGCCAGCUGACAG [Eternabot solution 48] (Eterna round: R96, puzzle: Exclusion NG 3) | – | – | – | 72 nM | 82.5 nM | 56.7 nM
AUUAGUAAUAAGGAUAUCACUAGCUGCGGCUAGUGAGAAGGUAUUACAUGAGGAUCACCCAUGUGAUCAAUUAA [E6/3-A3] (Eterna round: R97, puzzle: Exclusion 6) | – | – | – | 912 nM | 476 nM | –
GACUUGUCAGGAUAUCUUACAUUAACAUCGUAGUUACCGUUGGAGAAGGGACAUGAGGAUCACCCAUGUUUGGC [tap-tap-tappy25] (Eterna round: R97, puzzle: Exclusion 4) | – | – | – | 41.8 nM | 28.7 nM | –
GGAAGGAGAGGAUAUGAGGGAGAGAACAUGAGGAUCACCCAUGUGAGACCUCAGGAUCGAUCAGAAGGCUCAGUCC [AK-MS2ROC-r4-exclusion5-12] (Eterna round: R97, puzzle: Exclusion 5) | – | – | – | 692 nM | 232 nM | –
CUAGAUCUUCGGAUCUAGUACAUGAGGAUCACCCAUGUUACGAGCAGAUUUUCAUACAAGCUUUUUGCUCGUCUUAU [Sensor v3 - Turn-off variant 1 - 32] (puzzle: Sensor v3, turn-off variant 1) | 24.7 nM | 72.4 nM | 27.3 nM | – | – | –
UUAUACCUAGGAUAUACCUUUGGGUGUAGCCUAAUGUCUGGACAUGAGGAUCACCCAUGUAGAAGGAGGCGAAA [EX2 A.7] (Eterna round: R97, puzzle: Exclusion 2) | – | – | – | 244 nM | 78 nM | –
AAAGCGUGAGGAUAUGAGGCGCCGGGCCGGUUGGUGCGGAUUCAGAAGGCACAUGAGGAUCACCCAUGUAGGAA [Excls4-III] (puzzle: Exclusion 4) | – | 22.9 nM | – | – | – | –
UUCCCGCGCGUGAGGAUAUGCUGAUCCCAGGAUUAGCAGAAGGCACAUGAGGAUCACCCAUGUCCAACUUGUCU [LRO-BmodExc4-14- Bluer = mod of Colors by Tatyana Zabanova] (Eterna round: R97, puzzle: Brourd's mod of Exclusion 4) | – | – | – | 38.5 nM | 31.6 nM | –
